Reference: patent publication US8840891 (RSR, dated 2014)
Read-outs that look alike come from different tables or passages of the source.

Key:
Assay in all cases: cell-based or functional assay
[1] = target: TSHR with Arg109 mutated to Alanine (human) (UniProt P16473)
[2] = target: wild type human TSHR (human) (UniProt P16473)
[3] = target: TSHR with Lys129 mutated to Alanine (human) (UniProt P16473)
[4] = target: wild type human TSHR (human) (UniProt P16473); remark: listed apart in the source
[5] = target: TSHR with Asp160 mutated to Lysine (human) (UniProt P16473)
[6] = target: wild type human TSHR (human) (UniProt P16473); remark: listed apart in the source
[7] = target: TSHR with Arg255 mutated to Aspartic acid (human) (UniProt P16473)
[8] = target: wild type human TSHR (human) (UniProt P16473); remark: listed apart in the source

Chain of 5C9 IgG (antibody) (VH): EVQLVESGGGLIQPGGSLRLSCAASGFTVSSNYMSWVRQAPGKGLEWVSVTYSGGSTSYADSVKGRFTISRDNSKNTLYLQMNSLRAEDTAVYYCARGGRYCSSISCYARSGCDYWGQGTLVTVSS
Chain of 5C9 IgG (antibody) (VL): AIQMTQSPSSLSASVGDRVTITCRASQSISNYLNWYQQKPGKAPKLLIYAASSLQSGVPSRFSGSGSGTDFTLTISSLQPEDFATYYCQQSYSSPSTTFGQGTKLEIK

## 5C9 IgG (antibody)
[1]
  Mutated/wild type (%); 5C9 0.01 µg/mL + TSH: 89%
  Mutated/wild type (%); 5C9 0.1 µg/mL + TSH: 43%
  Mutated/wild type (%); 5C9 1.0 µg/mL + TSH: 69%
  Mutated/wild type (%); 5C9 10 µg/mL + TSH: 117%
  Mutated/wild type (%); 5C9 100 µg/mL + TSH: 46%
  Mutated/wild type (%); 5C9 100 µg/mL only: 147%
  cyclic AMP; 5C9 0.01 µg/mL + TSH (fmol/cell well): 9650
  cyclic AMP; 5C9 0.1 µg/mL + TSH (fmol/cell well): 1720
  cyclic AMP; 5C9 1.0 µg/mL + TSH (fmol/cell well): 827
  cyclic AMP; 5C9 10 µg/mL + TSH (fmol/cell well): 827
  cyclic AMP; 5C9 100 µg/mL + TSH (fmol/cell well): 561
  cyclic AMP; 5C9 100 µg/mL only (fmol/cell well): 335
[2]
  cyclic AMP; 5C9 0.01 µg/mL + TSH (fmol/cell well): 10800
  cyclic AMP; 5C9 0.1 µg/mL + TSH (fmol/cell well): 4010
  cyclic AMP; 5C9 1.0 µg/mL + TSH (fmol/cell well): 1210
  cyclic AMP; 5C9 10 µg/mL + TSH (fmol/cell well): 706
  cyclic AMP; 5C9 100 µg/mL + TSH (fmol/cell well): 1230
  cyclic AMP; 5C9 100 µg/mL only (fmol/cell well): 228
[3]
  Mutated/wild type (%); 5C9 0.01 µg/mL + TSH: 115%
  Mutated/wild type (%); 5C9 0.1 µg/mL + TSH: 488%
  Mutated/wild type (%); 5C9 1.0 µg/mL + TSH: 1270%
  Mutated/wild type (%); 5C9 10 µg/mL + TSH: 2040%
  Mutated/wild type (%); 5C9 100 µg/mL + TSH: 3240%
  Mutated/wild type (%); 5C9 100 µg/mL only: 203%
  cyclic AMP; 5C9 0.01 µg/mL + TSH (fmol/cell well): 12200
  cyclic AMP; 5C9 0.1 µg/mL + TSH (fmol/cell well): 13300
  cyclic AMP; 5C9 1.0 µg/mL + TSH (fmol/cell well): 12800
  cyclic AMP; 5C9 10 µg/mL + TSH (fmol/cell well): 11200
  cyclic AMP; 5C9 100 µg/mL + TSH (fmol/cell well): 15900
  cyclic AMP; 5C9 100 µg/mL only (fmol/cell well): 217
[4]
  cyclic AMP; 5C9 0.01 µg/mL + TSH (fmol/cell well): 10500
  cyclic AMP; 5C9 0.1 µg/mL + TSH (fmol/cell well): 2710
  cyclic AMP; 5C9 1.0 µg/mL + TSH (fmol/cell well): 1010
  cyclic AMP; 5C9 10 µg/mL + TSH (fmol/cell well): 548
  cyclic AMP; 5C9 100 µg/mL + TSH (fmol/cell well): 491
  cyclic AMP; 5C9 100 µg/mL only (fmol/cell well): 107
[5]
  Mutated/wild type (%); 5C9 0.01 µg/mL + M22: 91%
  Mutated/wild type (%); 5C9 0.1 µg/mL + M22: 82%
  Mutated/wild type (%); 5C9 1.0 µg/mL + M22: 117%
  Mutated/wild type (%); 5C9 10 µg/mL + M22: 309%
  Mutated/wild type (%); 5C9 100 µg/mL + M22: 218%
  Mutated/wild type (%); 5C9 100 µg/mL only: 107%
  cyclic AMP; 5C9 0.01 µg/mL + M22 (fmol/cell well): 15200
  cyclic AMP; 5C9 0.1 µg/mL + M22 (fmol/cell well): 7700
  cyclic AMP; 5C9 1.0 µg/mL + M22 (fmol/cell well): 963
  cyclic AMP; 5C9 10 µg/mL + M22 (fmol/cell well): 642
  cyclic AMP; 5C9 100 µg/mL + M22 (fmol/cell well): 657
  cyclic AMP; 5C9 100 µg/mL only (fmol/cell well): 458
[6]
  cyclic AMP; 5C9 0.01 µg/mL + M22 (fmol/cell well): 16700
  cyclic AMP; 5C9 0.1 µg/mL + M22 (fmol/cell well): 9380
  cyclic AMP; 5C9 1.0 µg/mL + M22 (fmol/cell well): 821
  cyclic AMP; 5C9 10 µg/mL + M22 (fmol/cell well): 208
  cyclic AMP; 5C9 100 µg/mL + M22 (fmol/cell well): 301
  cyclic AMP; 5C9 100 µg/mL only (fmol/cell well): 429
[7]
  Mutated/wild type (%); 5C9 0.01 µg/mL + TSH: 89%
  Mutated/wild type (%); 5C9 0.1 µg/mL + TSH: 85%
  Mutated/wild type (%); 5C9 1.0 µg/mL + TSH: 57%
  Mutated/wild type (%); 5C9 10 µg/mL + TSH: 59%
  Mutated/wild type (%); 5C9 100 µg/mL + TSH: 94%
  Mutated/wild type (%); 5C9 100 µg/mL only: 201%
  cyclic AMP; 5C9 0.01 µg/mL + TSH (fmol/cell well): 15700
  cyclic AMP; 5C9 0.1 µg/mL + TSH (fmol/cell well): 5580
  cyclic AMP; 5C9 1.0 µg/mL + TSH (fmol/cell well): 1930
  cyclic AMP; 5C9 10 µg/mL + TSH (fmol/cell well): 735
  cyclic AMP; 5C9 100 µg/mL + TSH (fmol/cell well): 1410
  cyclic AMP; 5C9 100 µg/mL only (fmol/cell well): 559
[8]
  cyclic AMP; 5C9 0.01 µg/mL + TSH (fmol/cell well): 17500
  cyclic AMP; 5C9 0.1 µg/mL + TSH (fmol/cell well): 6600
  cyclic AMP; 5C9 1.0 µg/mL + TSH (fmol/cell well): 3380
  cyclic AMP; 5C9 10 µg/mL + TSH (fmol/cell well): 1240
  cyclic AMP; 5C9 100 µg/mL + TSH (fmol/cell well): 1510
  cyclic AMP; 5C9 100 µg/mL only (fmol/cell well): 278
